Data from the supplement of paper PMC9170038.

System: K4 kissing-loop RNA reporter
Experiment: apparent KD of K4 kissing-loop reporter; higher = weaker reporter binding
Conditions: Eterna round: R107
Procedure: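 RNA-MaP round R107: designed RNA switches with theophylline, tryptophan, arginine or FMN aptamers are transcribed on-chip within common flanks. They are titrated with a labelled K4 kissing-loop RNA reporter in RNA-MaP buffer (100 mM Tris pH 7.5, 80 mM KCl, 4 mM MgCl2), without ligand or with the indicated ligand. Median apparent KD per design.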

[1] = input ligand: theophylline 20 uM
[2] = input ligand: tryptophan 2.4 mM
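Also: bound reporter read as fluorescence of individual clusters on recovered sequencing chips by microscopy, with normalized cluster intensities fitted with a binding model.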

Row | Sequence | apparent KD of K4 kissing-loop reporter (input ligand: FMN 200 uM) [nM] | apparent KD of K4 kissing-loop reporter (input ligand: arginine 13.2 mM) [nM] | apparent KD of K4 kissing-loop reporter (input ligand: none) [nM] | apparent KD of K4 kissing-loop reporter [1] [nM] | apparent KD of K4 kissing-loop reporter [2] [nM]
1 | UGUCAUGGAAACAUGAACGUUGAUGUUCGACGAGGACCGGUACGGCCGCCACUCGAGUAAUAGUCAGUGAUGUUGACUAGUCUAA [KL-SSTryp-A form1] | 76.7 | 107 | 95 | 112 | 75.7
2 | UGUCAUUGGUCGGCCGCCACUAGAAGGUCAAAGACCAAAGAGUGAUGUUCUUAGACGAAAGUCACUAGGACCGGGACCGAUGACU [TrypBS 7 #SwitchBubble #K4Middle] | 931 | 641 | 971 | 746 | 200
3 | UGUCAUUGGUCGGCCGCCACUAGACGGACAUAAAGUCUGUCAUAAAGAGUGAUGUUCUUAAAUAAUAGGACCGGGACCGAUGACU [TrypBS 29 #SwitchBubble #StaticStem] | 440 | 382 | 872 | 611 | 218
4 | UGUCAUUGGUCGGCCGCCACUCCAUAAUGAGUGAUGUUCUAAAAGACGGAUCGAAAGAUCUGUCGGAGGACCGGGACCGAUGACU [FiskerMod 5 - Jieux - Same State - Tryptophan B] | 566 | 456 | 680 | 799 | 267
5 | UGUCAUUGGUCUGAUACCAGCUGAUCGGAAACGAUCUUGCUGGAGUGAUGUUCCAAGUAAAGCCCUUGGCAGCAGACCGAUGACU [TheoBS 9 #SwitchBubble #StaticStem] | 183 | 53.8 | 70.6 | 107 | 144
6 | UGUCAUUGGUCUGAUACCAGCUGAUCGGAAACGAUCUUGCUGGAGUGAUGUUCCAGGAAAAGCCCUUGGCAGCAGACCGAUGACU [TheoBS 10 #SwitchBubble #StaticStem] | 1320 | 445 | 1210 | 1100 | 1220
7 | UGUCAUUGGUCUGAUACCAGUUGAUAAACUGGAGUGAUGUUCCAAGACGAGAAACUCGACAACCCUUGGCAGCAGACCGAUGACU [TheoBS 16 #SwitchBubble 13 #StaticStem] | 440 | 295 | 374 | 772 | 430
8 | UGUCGAGUGAUGUUCGAUGUGGUGCAUGCAGAGGAUAUAGGGUGGGCUAGAAGGCUGAAAAGUGCUUCGAGUGAUGUUCGAAGAU [Exclusion FMN A GF9] | 129 | 112 | 123 | 100 | 114
9 | UGUCGUUCUAGUGAUGUUAGGACAGUUAUGAAGGAUAUACACACUCGUAGAAGGUCAGCUGCGGAAUGGCGAUUACGGUGAUUCG [theeternabot_sameState_KL_FMN_A_39] | 157 | 107 | 128 | 132 | 136
10 | UGUGCUGUGUACUGUAAUGUUAUGCGGGAUACCAGAGUCUUUUUAUUCCCUUGGCAGCUUGAGUGAUGUUUGAUGCUGUUCUUGU [kiokmullin] | 362 | 301 | 370 | 331 | 314
11 | UGUGUUGUUUUGAUGUUUGUUGUAAGGUGGCAGGAUAUCGUAGAGGCGAGAAGGGCUUUUUUGCGUUAUGAGUGAUGUUUGUAGG [exeerzmullin] | 592 | 379 | 614 | 471 | 386
12 | UGUGUUUACCUGACCCAGUGAUGUUGGGAAGGAGCGUGCGAAAGCACAGGUAGGUCGCUCAACCUAAAGUCAGGUGAGCACUAAA [#SwitchBubble 9 #K4Early] | 407 | 277 | 447 | 470 | 328
13 | UGUGUUUACCUGACUCAGUGAUGUUGAGAAGGAGCGUGAGAAAGCACAGGUAGGUCGCUCAACCUAAAUUCAGGUGAGCACUAAA | 241 | 274 | 238 | 302 | 204
14 | UGUUAUGGGUGAGGAUAUGCUGACGAUGCGGGUGCGAGUGAUGUUGGUGUGGCUGGUGUCGUUUGUGCAGAAGGCACGCUCGUGG [BDazzled] | 879 | 522 | 934 | 846 | 811
15 | UUAACCAACAGCGAUACCAGCGUGGAGUGAUGUUCCGAGGAUCGGAGUGAUGUUCCGAAGCGCCCUUGGCAGCGCAGAAGCGCCA [Exclusion Theophylline B GF9] | 183 | 115 | 130 | 139 | 134
16 | UUAGAGAUCUCAGGAUAUCAGUGAUGUUGGUGUGAAGAUCUGAGAUAGAAUUCUAUCUCAGAUCAAUGAGAAGGGAGAUCUCAUU [AK3.1 Exc FMN B] | 385 | 162 | 209 | 181 | 168

Row | Sequence | apparent KD of K4 kissing-loop reporter (input ligand: FMN 200 uM) [nM] | apparent KD of K4 kissing-loop reporter (input ligand: arginine 13.2 mM) [nM] | apparent KD of K4 kissing-loop reporter (input ligand: none) [nM] | apparent KD of K4 kissing-loop reporter [1] [nM] | apparent KD of K4 kissing-loop reporter [2] [nM]
17 | UUAGAGAUCUCAGGAUAUGAGUGAUGUUGGUAUCAAGAUCUGAGAUAGAAUUCUAUCUCAGAUCAAUCAGAAGGGAGAUCUCAUU [AK2.1 Exc FMN B] | 376 | 424 | 534 | 583 | 550
18 | UUAGUACAUAGAGAUACCAGCCAUCGAAGUGAUGUUUCGAGAAAUAAUGAUGUUGGUAUAGGCCCUUGGCAGCUCUAUGUACAUU [AK1 Exc Theophylline B] | 103 | 95.4 | 104 | 94.7 | 97.4
19 | UUCAGACUACUACUAGACAGUAGUAUAUACUAGGAUAUCCAGAUAUGGAGAAGGAGUGAUGUUCCCUAGUAGUAGUGAAUUAAAU [KL-XFMN-A5] | 661 | 380 | 387 | 375 | 335
20 | UUCAGUGAUGUUGAACACUGUUGUAUAAACUAGGAUAUGCUGAUAAGCAGAAGGAGUGAUGUUCCGUUCAACAUCAGAAUUAAAU [#08 K4 FMN A Exclusion] | 662 | 415 | 488 | 496 | 269
21 | UUCAUCGUGGUUCGCGGGUGGUAUGAAAAGCGAGGACCGGUACGGCCGCCACUCGGUUCCGCUUGUUGAGUGAUGUUCAAUAUUU | 207 | 281 | 251 | 350 | 229
22 | UUCUACGUGCAAGGAUAUCCAUACGCUGCCCAGCGGGUAGCGAUAUAUGGAGUGAUGUUCCAUGUAGGAGAAGGUGCACUGUCCU [Atrea] | 149 | 386 | 457 | 466 | 475
23 | UUCUAGCCGAAAGGCUAGUCGGCUUCAGAUACCAGUCGCGAAAGCGACCCUUGGCAGCUGUGUAGUGAUGUUGCAAAGAAAGCCG | 556 | 435 | 618 | 262 | 524
24 | UUGAGCCGGACCCAAGUCCGGCUCUGCGAGCGAGGACCGGUACGGCCGCCACUCGGUGCAGUGAUGUUGCAUGGCCGCAAGGCCG [#2 Exclusion - Tryptophan A Attempt #7 (HarryS)] | 439 | 294 | 377 | 372 | 460
25 | UUGCAAAAGUCGGCCGCCACUCCGGGCCCUAUAAAUGGGCGCAGUGAUGUUGCGGCUAGGCCUCUGAGGACCGGGACUUUGUAGC [Aenonlebe] | 79 | 103 | 142 | 111 | 199
26 | UUGCAUGCUAGGGAAACCUAGCAUGCAUGCCGAGGACCGGUACGGCCGCCACUCGAACGAGUGAUGUUCGUUGACCAAAAUAAAA | 227 | 468 | 337 | 635 | 282
27 | UUGGAUUGAUGAGAGUUGAUUUGGUAGGAAGGAGCGGCCGAAAGGCCAGGUAGGUCGCCUAUUGACAGUGAUGUUGUUAUAUGGU [#16] | 215 | 228 | 237 | 489 | 226
28 | UUGGGCAACCGAGAUACCAGUCAAAUCGCUCUGGAGUGAUGUUCCGGAACAUGCGGAGAAGACCCUUGGCAGCUCAAGACGGACA [Exclusion Theophylline B GF 1] | 111 | 107 | 107 | 113 | 91.2
29 | UUGGGCAGUGAUGUUGGCUAGGCCACAGAUACCAGACGCAUGCACGUCCCUUGGCAGCUGCGAAAGUUAGACUUGUAAUGAUAGU [theeternabot_sameState_KL_Theo_A_45] | 418 | 181 | 321 | 338 | 217
30 | UUGUUUCCGACGGCCGCCACUGGUUUCUUUGUUGUAGUGAUGUUGCGGUGGAAUGAUAGCGUUAACAGGACCGGGUCGGUGAGAC [theeternabot_sameState_KL_Trp_B_42] | 1280 | 547 | 774 | 580 | 451
31 | UUUAAAUAUAGUGAUGUUAUAUAACAAUGACGAGGACCGGUACGGCCGCCACUCGAGAGAGAUAAUGGUCUAUAGAAUCUAUAGC [AstrosSSTryA#4] | 726 | 622 | 803 | 870 | 508
32 | UUUACCAGUGAUGUUGGCCUAGUAUUUACACGAGGACCGGUACGGCCGCCACUCGCAUUAUCGGACUUUGAUAAGCAUAUUAUAU [theeternabot_sameState_KL_Trp_A_28] | 317 | 283 | 318 | 384 | 199
